For experiment [1], the target named is T1, ELAM-Rg, soluble ELAM-1-IgG1 chimera (ELAM-1 extracellular domain fused to hinge, CH2 and CH3 domains of … (human, UniProt P16581 22-556, limits assumed)).
T1 construct: extracellular domain; Made in COS cells, recovered on protein A-agarose; appeared as disulfide-linked dimers; In adhesion assays it was captured on dishes coated with goat anti-human IgG; also called ELAM-1-Rg; ELAM-1-IgG1 fusion protein; not shown: human IgG1 hinge, CH2 and CH3 domains (genomic fragment of Aruffo et al., Cell 61:1303, 1990)
T1 sequence (looked up): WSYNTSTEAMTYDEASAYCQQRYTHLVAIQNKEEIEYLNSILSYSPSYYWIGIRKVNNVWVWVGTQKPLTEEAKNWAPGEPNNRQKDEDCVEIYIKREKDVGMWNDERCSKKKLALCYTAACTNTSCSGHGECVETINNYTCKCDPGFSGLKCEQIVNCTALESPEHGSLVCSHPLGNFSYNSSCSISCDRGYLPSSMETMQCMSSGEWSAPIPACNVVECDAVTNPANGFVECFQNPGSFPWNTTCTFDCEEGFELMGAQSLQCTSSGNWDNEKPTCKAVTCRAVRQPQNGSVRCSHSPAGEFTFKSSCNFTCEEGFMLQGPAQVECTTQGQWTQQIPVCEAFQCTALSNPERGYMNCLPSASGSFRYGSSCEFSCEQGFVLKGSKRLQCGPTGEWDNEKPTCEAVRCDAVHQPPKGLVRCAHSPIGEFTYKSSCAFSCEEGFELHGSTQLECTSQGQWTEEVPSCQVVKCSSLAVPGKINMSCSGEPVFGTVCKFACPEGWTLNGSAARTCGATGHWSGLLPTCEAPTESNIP
The experiment can be described thus: solid phase: α1-AGP adsorbed to wells, ELAM-Rg at 1 µg/ml, radioiodinated goat anti-human IgG, gamma counter. How it is done: Amniotic fluid fucosyltransferase was isolated by affinity chromatography and evaluated for its ability to convert α_1-AGP into an ELAM-1 ligand as follows. α(1,3) fucosyltransferase was isolated from concentrated amniotic fluid by fetuin-agarose chromatography as previously described in Hanisch et al. (*Carbohydr. Res.* 178:23, 1988) and Mitsakos et al. (*Biol. Chem. Hoppe-Seyler* 369:661, 1988). 0.8 μCi GDP^14C-fucose (225 Ci/mole) and 100 μg of bovine α_1-AGP (Sigma, St. Louis, Mo.) were added to a reaction mix containing 25 mM Tris-HCl pH 7.0, 35 mM MgCl_2 and 1 mM ATP in a final volume of 120 μl. The reaction was allowed to proceed for 24 h. at 37°, at which time approximately 10% of the ^14C-labeled fucose had been incorporated into TCA-insoluble material. Unincorporated label was removed by centrifugal ultrafiltration (Centricon 10, Amicon, Danvers, Mass.). 20 μl of a 1:5 dilution of the labelled material, or 10 μl of a 1:5 dilution of a similarly constituted reaction mixture lacking labelled GDP-fucose, was adsorbed to plastic dishes (as described above) or to 96 well microtiter plates (Falcon 3911, Becton Dickinson, Oxnard, Calif.). […] Following washing, labelled antibody binding was measured in a gamma counter. Results shown in FIG. 9 are expressed as the mean±standard deviation of quadruplicate determinations and are representative of two independent experiments.

For experiment [2], the target named is native constant domain of human IgG1 coexpressed with fucosyltransferase (human, UniProt P01857-1 99-330 = IgG part). Put plainly: not described.

B1: bovine α1-acid glycoprotein fucosylated in vitro with amniotic fluid α(1,3)fucosyltransferase and GDP-fucose (other, UniProt Q3SZR3 19-202, looked up)
chain: QSPECANLMTVAPITNATMDLLSGKWFYIGSAFRNPEYNKSARAIQAAFFYLEPRHAEDKLITREYQTIEDKCVYNCSFIKIYRQNGTLSKVESDREHFVDLLLSKHFRTFMLAASWNGTKNVGVSFYADKPEVTQEQKKEFLDVIKCIGIQESEIIYTDEKKDACGPLEKQHEEERKKETEAS
modifications: N-linked glycans fucosylated in vitro (sialyl-Le^X determinants)
notes: Adsorbed to plastic or to microtiter wells; also called in vitro-fucosylated α1-acid glycoprotein; enzymatically-fucosylated α1-AGP
With B1, in experiment [1], the binding result was “binds”.

B2: ELAM-1 (form in this assay not stated) (receptor, UniProt P16581 22-556, looked up)
chain: T1 sequence (looked up)
On to B2, for which the binding result in experiment [2] is “no binding”.

The record behind these values is patent US6613746 (GENERAL HOSPITAL, dated 2003).
